The supplement of paper PMC7877785
± gives the uncertainty stated by the source.

Assay: self-splicing fitness, log relative to wild type (ln ratio); higher = more splicing; Tetrahymena group I intron in knt gene, E. coli kanamycin selection, DiMSum; sequences stand for … in CUCUCU…GGAGGGAAAAGUUAUCAGGCAUGCACCUGGUAGCUAGUCUUUAAACCAAUAGAUUGCAUCGGUUUAAAAGGCAAGACCGUCAAAUUGCGGGAAAGGGGUCAACAGCCGUUCAGUACCAAGUCUCAGGGGAAACUUUGAGAUGGCCUUGCAAAGGGUAUGGUAAUAAGCUGACGGACAUGGUCCUAACCACGCAGCCAAGUCCUAAGUCAACAGAUCUUCUGUUGAUAUGGAUGCAGUUCACAGACUAAAUGUCGGUCGGGGAAGAUGUAUUCUUCUCAUAAGAUAUAGUCGGACCUCUCCUUAAUGGGAGCUAGCGGAUGAAGUGAUGCAACACUGGAGCCGCUGGGAACUAAUUUGUAUGCGAAAGUAUAUUGAUUAGUUUUGGAGUACUCGUGGUCG
Outline: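 A randomised library covering all eight P1ex-region intron nucleotides was built with the intron in the knt kanamycin-resistance gene on pET-22b(+) and held in E. coli BL21(DE3). Cells were grown overnight at 37°C or 30°C on LB agar, with or without 25 μg/mL kanamycin, plus 100 μg/mL carbenicillin, 50 μM IPTG and 0.2% rhamnose, and pooled colonies were amplicon-sequenced on an Illumina HiSeq 2500. DiMSum fitness is the error-weighted combination of wild-type-normalised replicate fold changes, kanamycin versus none.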

Sequence | self-splicing fitness (ln) (30 °C) | self-splicing fitness (ln) (37 °C)
GCGCAGCAAUAUUACGAAAU | -0.982 ± 0.075 | -0.192 ± 0.095
AUACAGCAAUAUUACGAAUC | -4.08 ± 0.25 | -2.3 ± 0.18
GUUAAGCAAUAUUACGUUUA | -2.74 ± 0.15 | -1.61 ± 0.11
GGCGAGCAAUAUUACGGACA | -0.299 ± 0.23 | -0.824 ± 0.28
ACCAAGCAAUAUUACGUUAC | -3.66 ± 0.2 | -1.76 ± 0.14
UAAAAGCAAUAUUACGCCAG | -1.34 ± 0.12 | -0.458 ± 0.17
AGCCAGCAAUAUUACGGUCG | -0.387 ± 0.078 | -0.328 ± 0.092
AAGCAGCAAUAUUACGUUAC | -3.42 ± 0.29 | -1.35 ± 0.18
AACAAGCAAUAUUACGAAUU | -1.9 ± 0.091 | -0.666 ± 0.12
GACGAGCAAUAUUACGCGCA | -1.71 ± 0.23 | -1.3 ± 0.21
CUGUAGCAAUAUUACGUACU | -2.61 ± 0.11 | -1.3 ± 0.13
UUAGAGCAAUAUUACGUUGA | -2.03 ± 0.1 | -0.538 ± 0.12
CCGUAGCAAUAUUACGCAUA | -2.31 ± 0.19 | -2.12 ± 0.33
AAGAAGCAAUAUUACGAGUG | -2.04 ± 0.12 | -1.23 ± 0.13
CAACAGCAAUAUUACGCCAA | -2.36 ± 0.14 | -1.62 ± 0.14
ACAGAGCAAUAUUACGUGGG | -2.64 ± 0.12 | -2.4 ± 0.16
UUACAGCAAUAUUACGAUUU | -1.09 ± 0.059 | -0.22 ± 0.084
CUGAAGCAAUAUUACGGGGA | -3.06 ± 0.43 | -2.36 ± 0.37
UCGCAGCAAUAUUACGAGUC | – | -2.6 ± 0.38
AAGCAGCAAUAUUACGUGAA | -1.35 ± 0.067 | -1.05 ± 0.077
UGCCAGCAAUAUUACGGCUA | 0.121 ± 0.12 | 0.121 ± 0.12
AGGAAGCAAUAUUACGUGGU | -3.36 ± 0.15 | -2.61 ± 0.25
GGCUAGCAAUAUUACGAACA | -1.01 ± 0.15 | -0.682 ± 0.15
GCUUAGCAAUAUUACGCGGA | -1.32 ± 0.071 | -0.345 ± 0.071

Sequence | self-splicing fitness (ln) (30 °C) | self-splicing fitness (ln) (37 °C)
CGUAAGCAAUAUUACGACCG | -0.867 ± 0.1 | -0.46 ± 0.19
CCUUAGCAAUAUUACGACUC | -3.05 ± 0.15 | -2.49 ± 0.2
CAAUAGCAAUAUUACGGGGA | -3.12 ± 0.39 | -2.61 ± 0.24
GACAAGCAAUAUUACGGCCA | -0.973 ± 0.11 | -0.192 ± 0.15
CUACAGCAAUAUUACGGUUC | -2.93 ± 0.089 | -1.23 ± 0.1
GUGCAGCAAUAUUACGUGUA | -2.77 ± 0.16 | -1.31 ± 0.11
ACCAAGCAAUAUUACGGCAG | -3.19 ± 0.16 | -1.9 ± 0.17
CUCCAGCAAUAUUACGUGAG | -3.61 ± 0.15 | -2.62 ± 0.18
CGGUAGCAAUAUUACGGCUC | -1.15 ± 0.079 | -0.532 ± 0.11
UAGGAGCAAUAUUACGCGGA | -3.57 ± 0.38 | -2.52 ± 0.26
AUCGAGCAAUAUUACGAAAU | -2.63 ± 0.37 | -1.87 ± 0.46
AAGUAGCAAUAUUACGGAUC | -1.17 ± 0.083 | -0.819 ± 0.12
GCUUAGCAAUAUUACGUGAC | -1.54 ± 0.09 | -1.08 ± 0.13
UCUUAGCAAUAUUACGCUGG | -2.64 ± 0.24 | -1.64 ± 0.23
CUGUAGCAAUAUUACGCCUG | -0.759 ± 0.14 | 0.521 ± 0.16
AUUGAGCAAUAUUACGAACU | -1.9 ± 0.23 | -0.643 ± 0.2
GCUUAGCAAUAUUACGAUUA | -1.01 ± 0.11 | -1.03 ± 0.1
CACGAGCAAUAUUACGACAU | -3.645 ± 0.024 | -2.92 ± 0.04
ACCGAGCAAUAUUACGUCAC | -3.34 ± 0.27 | -2 ± 0.21
UCGUAGCAAUAUUACGCGUG | -0.861 ± 0.1 | -0.648 ± 0.096
AACUAGCAAUAUUACGGUUA | -0.722 ± 0.084 | -0.482 ± 0.083
UAGCAGCAAUAUUACGUACC | -1.91 ± 0.38 | –
UAUGAGCAAUAUUACGAGGU | – | -3.62 ± 0.46
UGUGAGCAAUAUUACGUCAG | -1.88 ± 0.3 | -1.02 ± 0.24
